Data set [1] has as its system BAA2326 repressor (Shiga toxin-encoding bacteriophage BAA2326 (from STEC)). The data set is described as follows: EMSA. As to conditions: for binding signal: scale: fold Kd relative to separate OR1. (In general: A gel shift assay detects complexes by their altered migration in electrophoresis.)
For data set [2] the test system is unchanged. The data set is described as follows: DNaseI footprinting.

pKd: −log10 of the molar value. Several values for one entry are separate records, joined by “and”; a condition that tells them apart may be missing. Equal values may be shown once.

This is an account of results in paper PMC5977221.

The pKd is the negative decadic logarithm of the Kd, by convention in mol/L.

Regarding “GCGAATTCACTAAAGCACTTGCAATATCACCTTTGGTTATATGTAATGCCATAATAACTAAGAAGCTTCC (double strand) [BAA2326 OR3 oligonucleotide]”, in data set [1], the binding signal was 2.5. In data set [1], “GCGAATTCACTAAAGCACTTGCAATATGTAATGAAATATCTGCGGTGTTGACATTCCATAATAACTAAGAAGCTTCC (double strand) [BAA2326 OR2 oligonucleotide]” came in with a binding signal of 83.3. As for “GCGAATTCACTAAAGCACTTGCATTTAATAACTGTGCGTAATGATATGCCATAATAACTAAGAAGCTTCC (double strand) [BAA2326 OR1 oligonucleotide]”, the pKd in data set [1] was 9.38. Consider intact BAA2326 OR, wild type, for which the pKd in data set [2] was 7.54 and 7.36 and 7.23.
